These are literature values, as cited in EP1140148B1, “SHELF-STABLE SOLUTION FORMULATION OF GLUCAGON-LIKE PEPTIDE-1” (ELI LILLY AND COMPANY, priority 1998, dated 2005).

The conditions of this series: stored at 4° C; as early as; Mojsov 1992.

In the case of “GLP-1(7-37): Glucagon-like peptide-1 (7-37), insulinotropic peptide hormone”, the “by-products found after sample preparation” value is “eleven”.
